No end group written: not given here.
How the values were obtained:
[1] = in vitro; format: in vitro ADME; conditions: mouse, serum
Protocol: (§1) The chemical, radiochemical and optical stability of radioactive and non-radioactive M2 were examined using a series of in vitro stability studies. M2 was incubated in PBS and water at room temperature and 4° C. for 14 days, followed by HPLC analysis of peptide and fluorescent stability. To assess radiochemical stability, ^68Ga-M2 was added to a solution of PBS or DTPA (500-fold excess), kept at room temperature for 1, 2 and 3 h, and analyzed by radio-HPLC. To evaluate serum stability, 150 μl of ^68Ga-M2 was added to 50% mouse serum and incubated at 37° C. An 80 μl aliquot was taken at each of the above-mentioned time points and added to 160 μl ice-cold acetonitrile. The samples were centrifuged at 14,000 rpm for 5 min and the supernatant was collected, filtered and analyzed by radio-HPLC.

[2] = target: T1, MMP-9 (Mus musculus, UniProt P41245); set-up: injected intramuscularly into each hind limb quadriceps muscle of nonobese diabetic/severely compromised immunodeficient (NOD/SCID) mice; from tissue; host or cells: hind limb muscle of living NOD/SCID mice injected with AdBMP2- or Adempty-transduced human fibroblasts; conditions: in vivo, iv
Protocol: (§2) A murine model of BMP-2 induced HO was used as previously described (Rodenberg et al., 2010). […] Control transduced cells were injected into the contralateral limb.
The anesthetized mice were injected intravenously with ^68Ga-M2 (200 μCi, 6 nmol) and μPET/CT images were acquired 1 h post-injection. To visualize the formation of ectopic bone, CT imaging was performed on days 4 and 11 post-implantation

[3] = characterization of fluorescent properties; format: physicochemical
Protocol: Fluorescence intensity of the fluorophores was determined using the Fluorolog Tau-3 Spectrofluorometer (Horiba Jobin Yvon, Edison, N.J.) with excitation from a xenon arc lamp and absorbance was recorded using the DU-800 Spectrophotometer (Beckman Coulter, Brea Calif.). Fluorescence excitation and emission spectra were obtained at wavelengths of 785 and 830 nm respectively, with an integration time of 0.3 seconds for 1 μM solutions of IRDye 800CW, M2 and ^68Ga-M2 (n=4). Fluorescence measurements for IRDye 800CW and M2 were performed in aqueous solution under ambient conditions, whereas ^68Ga-M2 was prepared as previously described in NaOAc (pH 4) to provide an accurate representation of the ^68Ga-labeling scheme. Extinction coefficients were determined from the slope of absorbance at 785 nm as a function of the concentration of serial dilutions of each agent. Fluorescence quantum yield was determined by the comparative method of Williams et al. (Williams et al., 1983) using the quantum yield of ICGO (Φ=0.016) at 785/830 nm as a standard.

[4] = radiochemical stability of ^68Ga-M2 in PBS or DTPA challenge (radio-HPLC); format: physicochemical; conditions: room temperature, 3 h incubation
Protocol: as §1

[5] = format: physicochemical
Protocol: The lipophilicity of ^68Ga-M2 was assessed by determination of the water-octanol partition coefficient. 1-Octanol (1 mL) was added to a solution of approximately 25 μCi of ^68Ga-M2 in water (1 mL) and the layers were vigorously mixed for 5 min at room temperature. The tubes were centrifuged at 14,000 rpm for 2-3 min. Three samples of 100 μL of each layer were taken in pre-weighed vials, re-weighed, and counted in a […] (Wizard-2, Perkin Elmer). The partition coefficient was determined by calculating the ratio of counts per minute (cpm) in weight (g) of octanol/cpm in weight (g) of water and expressed as log P. At least three independent experiments were performed in triplicate to give the log P as the mean value±standard deviation (SD).

[6] = target: T1, MMP-9; test: NIRF imaging of ^68Ga-M2 in murine model of BMP-2 induced HO; format: in vivo; set-up: injected intramuscularly into each hind limb quadriceps muscle of nonobese diabetic/severely compromised immunodeficient (NOD/SCID) mice; from tissue; host or cells: hind limb muscle of living NOD/SCID mice injected with AdBMP2- or Adempty-transduced human fibroblasts; conditions: day 4 after implantation, 18 hr after i.v. administration
Protocol: as §2
Based on the findings from the ex vivo analysis, mice were imaged on day 4 post-implantation with NIRF imaging to assess localization and in vivo fluorescence of M2 following ^68Ga-labeling. […] NIR fluorescence images were acquired 18 hr after intravenous administration of ^68Ga-M2 using a custom-built fluorescence imaging systems previously described Houston et al., 2005). Briefly, a field of view was illuminated with 785 nm of light from a laser diode, outfitted with a convex lens and diffuser to create a uniform excitation field. The fluorescence was collected through holographic and interference filters placed before a Nikon camera lens. The images were finally captured by an electron-multiplying charge-coupled device camera (PhotonMax 512; Princeton Instruments, Princeton, N.J.) with 200 to 400 milliseconds of integration time. For acquisition of white-light images, the optical filters were removed, and a low-power lamp illuminated the subject. Image acquisition was accomplished by V++ software (Auckland, New Zealand).

[7] = in vivo; Kuhnast et al., 2004; Sprague et al., 2006; cited from earlier work
[8] = test system: MMP-2/9; conditions: Koivunen et al., 1999; cited from earlier work
[9] = 1 μM solutions, IRDye 800CW and M2 aqueous, ^68Ga-M2 in NaOAc pH 4

T1 sequence (P41245 108-730): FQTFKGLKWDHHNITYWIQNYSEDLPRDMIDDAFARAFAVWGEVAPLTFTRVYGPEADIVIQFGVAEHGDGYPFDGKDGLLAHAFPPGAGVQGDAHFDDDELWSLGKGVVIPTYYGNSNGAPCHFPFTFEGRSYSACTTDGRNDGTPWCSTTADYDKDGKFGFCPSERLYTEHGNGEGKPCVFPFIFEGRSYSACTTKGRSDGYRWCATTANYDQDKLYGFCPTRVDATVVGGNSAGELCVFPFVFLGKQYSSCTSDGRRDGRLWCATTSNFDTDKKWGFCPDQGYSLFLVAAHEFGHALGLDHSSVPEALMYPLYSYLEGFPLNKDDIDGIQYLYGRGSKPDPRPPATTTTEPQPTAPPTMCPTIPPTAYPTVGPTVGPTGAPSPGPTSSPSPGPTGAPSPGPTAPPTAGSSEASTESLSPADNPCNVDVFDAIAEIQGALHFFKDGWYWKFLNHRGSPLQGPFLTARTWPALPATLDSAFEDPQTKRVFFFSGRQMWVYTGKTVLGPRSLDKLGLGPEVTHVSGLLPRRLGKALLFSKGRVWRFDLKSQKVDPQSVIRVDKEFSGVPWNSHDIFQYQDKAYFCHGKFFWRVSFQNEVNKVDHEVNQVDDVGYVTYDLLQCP

Compound | remaining at 3 h [1] | clearance from circulation [2] | Emission maximum [3, 9] | Excitation wavelength [3, 9] | Quantum yield ([3]; 785/830 nm, relative to ICG (Φ=0.016)) | Extinction coefficient ([3]; absorbance at 785 nm, serial dilutions, mean ± SD (n=4)) | absorbance maximum ([3]; optical spectrum) | radiochemical purity ([4]; DTPA (500-fold excess)) | radiochemical purity ([4]; PBS) | logP [5] | localization of agent by NIR fluorescence [6] | susceptibility to non-specific degradation [7] | inhibitory activity against MMP-2/9 [8]
CC(C)C[C@@H]1NC(=O)[C@H]([C@@H](C)O)NC(=O)[C@H](Cc2ccccc2)NC(=O)CNC(=O)[C@H](Cc2c[nH]c3ccccc23)NC(=O)[C@H](Cc2c[nH]cn2)NC(=O)[C@H](C)NC(=O)[C@@H](NC(=O)[C@H](CCCCNC(=O)CCCCC[N+]2=C(C=CC3=C(Oc4ccc(S(=O)(=O)O)cc4)C(=CC=C4N(CCCCS(=O)(=O)O)c5ccc(S(=O)(=O)O)cc5C4(C)C)CCC3)C(C)(C)c3cc(S(=O)(=O)[O-])ccc32)NC(=O)CN2CCN(CC(=O)O)CCN(CC(=O)O)CCN(CC(=O)O)CC2)CCCCNC(=O)C[C@@H](C(=O)O)NC1=O (single isomer, unassigned) [^68Ga-M2, metal not drawn] | > 95% | rapidly cleared from circulation via the kidneys | 830 nm | 785 nm | 0.031 | 108,069±7,918 M^−1cm^−1 | 785 nm | > 95% | > 95% | -2.09 ± 0.02 | observed in the tissue region with BMP-2 producing cells |  | 
c(CTTHWGFTLC) (also: cyclic, c(...), ring type and places not given here) |  |  |  |  |  |  |  |  |  |  |  | highly susceptible to non-specific degradation | potent inhibitory activity

Reference: US20140178293A1, “METHODS FOR IMAGING BONE PRECURSOR CELLS USING DUAL-LABELED IMAGING AGENTS TO DETECT MMP-9 POSITIVE CELLS” (BAYLOR COLLEGE OF MEDICINE, priority 2011, published 2014)
